Data: article PMC4338613

Experiments:
Assay in all cases: co-IP
[1] = target: LAP-tagged FUS/TLS R495X (human) (UniProt P35637)
[2] = target: LAP-tagged FUS/TLS P525L (human) (UniProt P35637)
[3] = target: LAP-tagged FUS/TLS R521G (human) (UniProt P35637)

Measured: fold reduction of association against wild-type FUS/TLS

Sm-B/D (components of Sm core)
5 fold: all assays above
